Patent WO2011080050A2 (dated 2011)

T1: cynomolgus monkey CCL21 (cynomolgus monkey, UniProt Q8HYP5 24-131 (rhesus entry))
T1 sequence: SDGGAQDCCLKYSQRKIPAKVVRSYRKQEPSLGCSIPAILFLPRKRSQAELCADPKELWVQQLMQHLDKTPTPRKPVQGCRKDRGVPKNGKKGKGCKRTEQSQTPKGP

T2: natural human CCL21 (secreted and isolated from transfected HEK-293T cells) (human, UniProt O00585 24-134)
T2 sequence: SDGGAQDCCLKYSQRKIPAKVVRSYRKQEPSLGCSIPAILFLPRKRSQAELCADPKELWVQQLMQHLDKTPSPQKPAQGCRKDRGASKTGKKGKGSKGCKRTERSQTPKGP

T3: human CCL21 (human, UniProt O00585 24-134)
T3 sequence: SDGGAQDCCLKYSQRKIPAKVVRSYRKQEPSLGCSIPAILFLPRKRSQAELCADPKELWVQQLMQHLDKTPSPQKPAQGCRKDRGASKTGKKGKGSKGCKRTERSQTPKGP


Legend:
cynomolgus monkey CCL21 [1] = target: T1, cynomolgus monkey CCL21; assay: cell-based or functional assay
[2] = target: T2, natural human CCL21 (secreted and …); assay: cell-based or functional assay
human CCL21 [3] = target: T3, human CCL21; assay: cell-based or functional assay
[4] = target: CCL21 of the four chemotaxis assays (recombinant human, recombinant cynomolgus monkey, natural human); assay: cell-based or functional assay
cynomolgus monkey CCL21 [5] = target: T1, cynomolgus monkey CCL21; assay: SPR (Biacore T100), antibody captured on protein A, CCL21 as analyte, 1:1 model, two experiments
human CCL21 [6] = target: T3, human CCL21; assay: SPR (Biacore T100), antibody captured on protein A, CCL21 as analyte, 1:1 model, three experiments

| % inhibition of migration, recombinant cCCL21, H9 cells, 1:1 molar ratio (3rd cell) (cynomolgus monkey CCL21 [1]) | % inhibition of migration, recombinant cCCL21, H9 cells, IgG at 2uM (3rd cell) (cynomolgus monkey CCL21 [1]) | % inhibition of migration, natural hCCL21, H9 cells, 1:1 molar ratio (4th cell) [2] | % inhibition of migration, natural hCCL21, H9 cells, IgG at 2uM (4th cell) [2] | IC50, inhibition of natural hCCL21-mediated migration of H9 cells [2] | % inhibition of migration, recombinant hCCL21, H9 cells, 1:1 molar ratio (1st cell) (human CCL21 [3]) | % inhibition of migration, recombinant hCCL21, H9 cells, IgG at 2uM (1st cell) (human CCL21 [3]) | % inhibition of migration, recombinant hCCL21, primary human T cells, 1:1 molar ratio (2nd cell) (human CCL21 [3]) | % inhibition of migration, recombinant hCCL21, primary human T cells, IgG at 2uM (2nd cell) (human CCL21 [3]) | IC50, inhibition of recombinant hCCL21-mediated migration of H9 cells (human CCL21 [3]) | % inhibition of CCL21 mediated chemotaxis at 1:1 molar ratio, large scale batch, four assays [4] | IC50, inhibition of CCL21 mediated chemotaxis, large scale batch, four assays [4] | IC50, inhibition of CCL21-mediated calcium mobilization, cynomolgus monkey CCL21 on CHO-K1 cells with cynomolgus monkey CCR7 (cynomolgus monkey CCL21 [1]) | IC50, inhibition of CCL21-mediated calcium mobilization, cynomolgus monkey CCL21 on CHO-K1 cells with human CCR7 (cynomolgus monkey CCL21 [1]) | IC50, inhibition of CCL21-mediated calcium mobilization, human CCL21 on CHO-K1 cells with cynomolgus monkey CCR7 (human CCL21 [3]) | IC50, inhibition of CCL21-mediated calcium mobilization, human CCL21 on CHO-K1 cells with human CCR7 (human CCL21 [3]) | Kd (cynomolgus monkey CCL21 [5]) | kon (cynomolgus monkey CCL21 [5]) | Kd (human CCL21 [6]) | kon (human CCL21 [6]) | Binder |
| --- | --- | --- | --- | --- | --- | --- | --- | --- | --- | --- | --- | --- | --- | --- | --- | --- | --- | --- | --- | --- |
| 96% | 100% | 77% | 100% |  | 61% | 100% | 86% | 100% |  | 81 to 100% | 11 to 45 nM | 62 nM | 211 nM | 252 nM | 341 nM | 0.026 nM | 9.1e+07 M⁻¹ s⁻¹ | 0.03 nM | 6.8e+07 M⁻¹ s⁻¹ | MOR06935_g3-23_g3j (antibody, V domains shown, also called QBP359; FW repaired germlined MOR06935) VH: EVQLLESGGGLVQPGGSLRLSCAASGFTFNSYSMSWVRQAPGKGLEWVSAISMEGYSKSYADSVKGRFTISRDNSKNTLYLQMNSLRAEDTAVYYCARGYGYYFDVWGQGTLVTVSS VL: SYELTQPLSVSVALGQTARITCGGDSIGSQYASWYQQKPGQAPVLVIYDDNERPSGIPERFSGSNSGNTATLTISRAQAGDEADYYCGSWDSNPTHVFGGGTKLTVLG |
| 100% | 100% | 82% | 100% | 34 nM | 94% | 94% | 100% | 100% | 54.1 nM |  |  |  |  |  |  |  |  |  |  | MOR08389_g3-23_g3j (antibody, human IgG1, lambda, V domains shown) VH: EVQLLESGGGLVQPGGSLRLSCAASGFTFNSYSMSWVRQAPGKGLEWVSAISMEGYSKSYADSVKGRFTISRDNSKNTLYLQMNSLRAEDTAVYYCARGYGYYFDVWGQGTLVTVSS VL: SYELTQPLSVSVALGQTARITCGGDSIGSQYASWYQQKPGQAPVLVIYDDNERPSGIPERFSGSNSGNTATLTISRAQAGDEADYYCSSWDMDAVNVFGGGTKLTVLG |

The next lines start with the binder.

| Binder | % inhibition of migration, recombinant cCCL21, H9 cells, 1:1 molar ratio (3rd cell) (cynomolgus monkey CCL21 [1]) | % inhibition of migration, recombinant cCCL21, H9 cells, IgG at 2uM (3rd cell) (cynomolgus monkey CCL21 [1]) | % inhibition of migration, natural hCCL21, H9 cells, 1:1 molar ratio (4th cell) [2] | % inhibition of migration, natural hCCL21, H9 cells, IgG at 2uM (4th cell) [2] | IC50, inhibition of natural hCCL21-mediated migration of H9 cells [2] | % inhibition of migration, recombinant hCCL21, H9 cells, 1:1 molar ratio (1st cell) (human CCL21 [3]) | % inhibition of migration, recombinant hCCL21, H9 cells, IgG at 2uM (1st cell) (human CCL21 [3]) | % inhibition of migration, recombinant hCCL21, primary human T cells, 1:1 molar ratio (2nd cell) (human CCL21 [3]) | % inhibition of migration, recombinant hCCL21, primary human T cells, IgG at 2uM (2nd cell) (human CCL21 [3]) | IC50, inhibition of recombinant hCCL21-mediated migration of H9 cells (human CCL21 [3]) | % inhibition of CCL21 mediated chemotaxis at 1:1 molar ratio, large scale batch, four assays [4] | IC50, inhibition of CCL21 mediated chemotaxis, large scale batch, four assays [4] | IC50, inhibition of CCL21-mediated calcium mobilization, cynomolgus monkey CCL21 on CHO-K1 cells with cynomolgus monkey CCR7 (cynomolgus monkey CCL21 [1]) | IC50, inhibition of CCL21-mediated calcium mobilization, cynomolgus monkey CCL21 on CHO-K1 cells with human CCR7 (cynomolgus monkey CCL21 [1]) | IC50, inhibition of CCL21-mediated calcium mobilization, human CCL21 on CHO-K1 cells with cynomolgus monkey CCR7 (human CCL21 [3]) | IC50, inhibition of CCL21-mediated calcium mobilization, human CCL21 on CHO-K1 cells with human CCR7 (human CCL21 [3]) | Kd (cynomolgus monkey CCL21 [5]) | kon (cynomolgus monkey CCL21 [5]) | Kd (human CCL21 [6]) | kon (human CCL21 [6]) |
| --- | --- | --- | --- | --- | --- | --- | --- | --- | --- | --- | --- | --- | --- | --- | --- | --- | --- | --- | --- | --- |
| MOR08382_g3-23_gL6 (antibody, human IgG1, kappa, V domains shown) VH: EVQLLESGGGLVQPGGSLRLSCAASGFTFSSYWLNWVRQAPGKGLEWVSYISNQGDDTSYADSVKGRFTISRDNSKNTLYLQMNSLRAEDTAVYYCARDYQYIGDSFDIWGQGTLVTVSS VL: EIVLTQSPATLSLSPGERATLSCRASQYVSYVSLAWYQQKPGQAPRLLIYDASNRATGIPARFSGSGSGTDFTLTISSLEPEDFAVYYCQQYDDLSYTFGQGTKVEIKR | 100% | 100% | 70% | 100% | 66 nM | 97% | 97% | 100% | 100% | 23.7 nM |  |  |  |  |  |  |  |  |  |  |
| MOR08378_g5-51_g2a2 (antibody, human IgG1, lambda, V domains shown) VH: EVQLVQSGAEVKKPGESLKISCKGSGYSFNNYWISWVRQMPGKGLEWMGIIDPTNSQTTYSPSFQGQVTISADKSISTAYLQWSSLKASDTAMYYCARDGYPIFDYWGQGTLVTVSS VL: QSALTQPASVSGSPGQSITISCTGTSSDLGGYNYVSWYQQHPGKAPKLMIYDVNYRPSGVSNRFSGSKSGNTASLTISGLQAEDEADYYCSSYTYYSNSGVFGGGTKLTVLG | 100% | 100% | 64% | 100% | 69 nM | 87% | 100% | 100% | 100% | 49.7 nM |  |  |  |  |  |  |  |  |  |  |
